This passage reports Kd results from patent US20220033520A1 (published 2022).

Assay [1] has as its target T1, human FcRn complex (FCGRT and beta-2 microglobulin), recombinant, purified (human, UniProt P55899 24-297; P61769 21-119). Kind of assay: -; pH7.4.
In assay [2] the target is T1, human FcRn complex (FCGRT and beta-2 …). Kind of assay: -; pH6.
Assay [3] has the same target. Kind of assay: -; pH6. This is another data set of the same source.
Assay [4] has the same target. Kind of assay: -; pH6. The source holds these as a separate data set.
For assay [5] the target is unchanged. Kind of assay: -; pH7.4. This is another data set of the same source.
Assay [6] shares this target. Kind of assay: ?; pH 7.4.
The target is the same in assay [7]. Kind of assay: ?; pH 6.
The target is the same in assay [8]. Kind of assay: ?; pH 6. The source holds these as a separate data set.
Assay [9] shares this target. Kind of assay: -; pH7.4. This is another data set of the same source.
Assay [10] shares this target. Kind of assay: ?; pH 7.4. This is another data set of the same source.
For assay [11] the target is unchanged. Kind of assay: ?; pH 6. This is another data set of the same source.
The target is the same in assay [12]. Kind of assay: -; pH7.4. The source holds these as a separate data set.
The target is the same in assay [13]. Kind of assay: -; pH6. This is another data set of the same source.
For assay [14] the target is unchanged. Kind of assay: ?; pH 7.4. This is another data set of the same source.

T1 sequence (P55899 24-297, chain 1 of 2): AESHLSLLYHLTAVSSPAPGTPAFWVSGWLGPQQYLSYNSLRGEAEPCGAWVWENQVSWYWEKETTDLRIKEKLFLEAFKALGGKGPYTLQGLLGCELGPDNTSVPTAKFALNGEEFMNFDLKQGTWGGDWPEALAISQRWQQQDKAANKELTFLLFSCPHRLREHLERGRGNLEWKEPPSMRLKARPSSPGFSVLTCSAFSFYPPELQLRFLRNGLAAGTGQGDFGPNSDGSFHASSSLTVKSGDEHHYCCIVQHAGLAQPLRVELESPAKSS
T1 sequence (P61769 21-119, chain 2 of 2): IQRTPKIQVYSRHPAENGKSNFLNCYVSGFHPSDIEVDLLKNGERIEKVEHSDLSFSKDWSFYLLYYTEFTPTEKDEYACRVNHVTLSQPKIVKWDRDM

B1: anti-gD antibody comprising a hIgG1 with a YQAY (Q95, M252Y/T307Q/Q311A/N434Y) Fc modification (anti-gD-hIgG1-YQAY) (antibody)
Fc: PAPELLGGPSVFLFPPKPKDTLYISRTPEVTCVVVDVSHEDPEVKFNWYVDGVEVHNAKTKPREEQYNSTYRVVSVLQVLHADWLNGKEYKCKVSNKALPAPIEKTISKAKGQPREPQVYTLPPSRDELTKNQVSLTCLVKGFYPSDIAVEWESNGQPENNYKTTPPVLDSDGSFFLYSKLTVDKSRWQQGNVFSCSVMHEALHYHYTQKSLSLSPGK
Consider B1, for which the Kd worked out at 333 nM in assay [1]; 2 nM in [2]; 2 nM in assay [3]; 2 nM in assay [4]; 333 nM in assay [5]; 333 nM in [6]. The Kd in assay [7] turned out to be 2 nM; in assay [8], 2 nM; in [9], 333 nM; in [10], 333 nM.

B2: anti-BACE1 hIgG1 antibody, Fc modification Q95 (M252Y/T307Q/Q311A/N434Y) (antibody)
Fc: B1 Fc
For the molecule B2, the Kd was determined as 1.98 nM in assay [11], 333 nM in [12], 2 nM in [13] and 333 nM in assay [14].

By Kd is commonly meant the constant that tells how readily two partners part at equilibrium.
